Results reported in the Immune Epitope Database (IEDB).

What was measured:
HLA-A*69:01 = test: IEDB peptide-MHC binding, purified MHC/direct/fluorescence; filed as Kd, often an IC50 or EC50 that approximates it; ≥ and ≤ were set here for values at or beyond the usual limits of such assays
HLA-B*40:01 = test: as above
HLA-B*07:02 = test: as above
HLA-A*02:01 = test: as above
HLA-B*15:01 = test: as above
HLA-A*03:01 = test: as above
HLA-A*11:01 = test: as above
HLA-B*58:01 = test: as above
HLA-B*08:01 [1] = test: as above; conditions: source organism: Coxiella burnetii Q321
HLA-A*01:01 = test: as above
HLA-B*48:01 = test: as above
HLA-A*31:01 = test: as above
HLA-B*57:01 = test: as above
HLA-B*39:01 [2] = test: as above
HLA-B*44:02 = test: as above
HLA-B*27:05 = test: as above
HLA-A*68:02 [3] = test: IEDB peptide-MHC binding, purified MHC/competitive/fluorescence; filed as Kd, often an IC50 or EC50 that approximates it; ≥ and ≤ were set here for values at or beyond the usual limits of such assays; conditions: source organism: Coxiella burnetii RSA 331
HLA-B*15:17 [4] = test: as above; conditions: source organism: Coxiella burnetii RSA 331
HLA-B*15:09 = test: as above
HLA-B*35:01 = test: as above; conditions: source organism: Coxiella burnetii RSA 331
HLA-A*68:02 [5] = test: IEDB peptide-MHC binding, purified MHC/direct/fluorescence; filed as Kd, often an IC50 or EC50 that approximates it; ≥ and ≤ were set here for values at or beyond the usual limits of such assays
HLA-A*24:03 = test: as above; conditions: source organism: Giardia lamblia ATCC 50803
HLA-A*26:01 = test: as above
HLA-B*18:01 = test: as above
HLA-B*46:01 = test: as above; conditions: source organism: Giardia lamblia ATCC 50803
HLA-A*02:12 = test: as above; conditions: source organism: Giardia lamblia ATCC 50803
HLA-B*27:03 = test: as above; conditions: source organism: Giardia lamblia ATCC 50803
HLA-A*02:11 = test: as above; conditions: source organism: Giardia lamblia ATCC 50803
HLA-B*15:17 [6] = test: as above
HLA-A*02:03 = test: as above; conditions: source organism: Giardia lamblia ATCC 50803
HLA-B*08:01 [7] = test: IEDB peptide-MHC binding, purified MHC/competitive/fluorescence; filed as Kd, often an IC50 or EC50 that approximates it; ≥ and ≤ were set here for values at or beyond the usual limits of such assays; conditions: source organism: Brucella canis ATCC 23365
HLA-B*39:01 [8] = test: as above; conditions: source organism: Brucella canis ATCC 23365
[9] = source organism: Coxiella burnetii
[10] = source organism: Giardia lamblia ATCC 50803
[11] = source organism: Brucella abortus 2308

## HEGDIVPLF
HLA-A*69:01; [9]
  Kd: ≥ 20 µM
HLA-B*40:01; [9]
  Kd: 0.312 µM
HLA-B*07:02; [9]
  Kd: ≥ 20 µM
HLA-A*02:01; [9]
  Kd: ≥ 20 µM
HLA-B*15:01; [9]
  Kd: 15 µM
HLA-A*03:01; [9]
  Kd: ≥ 20 µM
HLA-A*11:01; [9]
  Kd: ≥ 20 µM
HLA-B*58:01; [9]
  Kd: ≥ 20 µM
HLA-B*08:01 [1]
  Kd: ≥ 20 µM
HLA-A*01:01; [9]
  Kd: ≥ 20 µM
HLA-B*48:01; [9]
  Kd: ≥ 20 µM
HLA-A*31:01; [9]
  Kd: ≥ 20 µM
HLA-B*57:01; [9]
  Kd: ≥ 20 µM
HLA-B*39:01 [2]; source organism: Coxiella burnetii Q321
  Kd: ≥ 20 µM
HLA-B*44:02; [9]
  Kd: 6 µM
HLA-B*27:05; [9]
  Kd: ≥ 20 µM
HLA-A*68:02 [3]
  Kd: ≥ 20 µM
HLA-B*15:17 [4]
  Kd: 0.644 µM
HLA-B*15:09; source organism: Coxiella burnetii RSA 331
  Kd: ≥ 20 µM
HLA-B*35:01
  Kd: 0.183 µM

## VLLISDPGL
HLA-A*69:01; [10]
  Kd: ≥ 20 µM
HLA-A*68:02 [5]; [10]
  Kd: ≥ 20 µM
HLA-A*24:03
  Kd: ≥ 20 µM
HLA-A*26:01; [10]
  Kd: ≥ 20 µM
HLA-B*15:01; [10]
  Kd: ≥ 20 µM
HLA-A*03:01; [10]
  Kd: ≥ 20 µM
HLA-B*18:01; [10]
  Kd: ≥ 20 µM
HLA-B*46:01
  Kd: ≥ 20 µM
HLA-A*02:12
  Kd: ≥ 20 µM
HLA-B*27:03
  Kd: ≥ 20 µM
HLA-A*02:11
  Kd: ≥ 20 µM
HLA-B*15:17 [6]; [10]
  Kd: 0.254 µM
HLA-B*57:01; [10]
  Kd: ≥ 20 µM
HLA-B*39:01 [2]; [10]
  Kd: ≥ 20 µM
HLA-A*02:03
  Kd: ≥ 20 µM

## IEVKFHPIL
HLA-A*69:01; [11]
  Kd: ≥ 20 µM
HLA-B*40:01; [11]
  Kd: 0.013 µM
HLA-A*68:02 [5]; [11]
  Kd: ≥ 20 µM
HLA-B*07:02; [11]
  Kd: ≥ 20 µM
HLA-A*26:01; source organism: Brucella suis 1330
  Kd: ≥ 20 µM
HLA-A*02:01; [11]
  Kd: ≥ 20 µM
HLA-B*15:01; [11]
  Kd: ≥ 20 µM
HLA-A*03:01; [11]
  Kd: ≥ 20 µM
HLA-B*18:01; [11]
  Kd: 0.006 µM
HLA-A*11:01; [11]
  Kd: ≥ 20 µM
HLA-B*58:01; [11]
  Kd: ≥ 20 µM
HLA-A*01:01; [11]
  Kd: ≥ 20 µM
HLA-B*48:01; [11]
  Kd: 0.534 µM
HLA-B*15:17 [6]; [11]
  Kd: ≥ 20 µM
HLA-A*31:01; [11]
  Kd: ≥ 20 µM
HLA-B*57:01; [11]
  Kd: ≥ 20 µM
HLA-B*44:02; [11]
  Kd: ≥ 20 µM
HLA-B*27:05; [11]
  Kd: ≥ 20 µM
HLA-B*08:01 [7]
  Kd: 0.811 µM
HLA-B*15:09; source organism: Brucella canis ATCC 23365
  Kd: 0.0868 µM
HLA-B*39:01 [8]
  Kd: 1.06 µM
